Measured values reported in patent publication US20110223168A1 (published 2011).
Positions count from the first letter of the chain named.

B1: TAR1-5-19d5 (other)
chain: DIQMTQSPSSLSASVGDRVTITCRASQSIDSYLHWYQQKPGKAPKLLIYSASELQSGVPSRFSGSGSGTDFTLTISSLQPEDFATYYCQQVVWRPFTFGQGTKVEIKRGGGGSGGGGSGGGGSGGGGSGGGGSDIQMTQSPSSLSASVGDRVTITCRASQSIYDALEWYQQKPGKAPKLLIYTASRLQSGVPSRFSGSGSGTDFTLTISSLQPEDFATYYCQQVMQRPVTFGQGTKVEIKR
B2: TAR1-5-19 d1 (other)
chain: DIQMTQSPSSLSASVGDRVTITCRASQSIDSYLHWYQQKPGKAPKLLIYSASELQSGVPSRFSGSGSGTDFTLTISSLQPEDFATYYCQQVVWRPFTFGQGTKVEIKRGGGGSGGGGSGGGGSDIQMTQSPSSLSASVGDRVTITCRASQSIYDALEWYQQKPGKAPKLLIYTASRLQSGVPSRFSGSGSGTDFTLTISSLQPEDFATYYCQQVMQRPVTFGQGTKVEIKR
notes: TAR1-5-19 substituted for TAR1-5 in lead clone d1
B3: TAR1-5-19 d6 (other)
chain: DIQMTQSPSSLSASVGDRVTITCRASQSIDSYLHWYQQKPGKAPKLLIYSASELQSGVPSRFSGSGSGTDFTLTISSLQPEDFATYYCQQVVWRPFTFGQGTKVEIKRGGGGSGGGGSGGGGSGGGGSGGGGSGGGGSGGGGSDIQMTQSPSSLSASVGDRVTITCRASQSIYDALEWYQQKPGKAPKLLIYTASRLQSGVPSRFSGSGSGTDFTLTISSLQPEDFATYYCQQVMQRPVTFGQGTKVEIKR
B4: TAR1-5d5 (other)
chain: B1 chain with D30F, S31M, Y32N, H34L, S50N, E53V
notes: dAb-linker-dAb dimer; also called TAR1-5 dimer 5
B5: TAR1-5d1 (other)
chain: B2 chain with D30F, S31M, Y32N, H34L, S50N, E53V
notes: dAb-linker-dAb dimer; also called TAR1-5 dimer 1
B6: TAR1-5d6 (other)
chain: B3 chain with D30F, S31M, Y32N, H34L, S50N, E53V
notes: dAb-linker-dAb dimer; also called TAR1-5 dimer 6
B7: TAR1-5d4 (other)
chain: DIQMTQSPSSLSASVGDRVTITCRASQSIFMNLLWYQQKPGKAPKLLIYNASVLQSGVPSRFSGSGSGTDFTLTISSLQPEDFATYYCQQVVWRPFTFGQGTKVEIKRGGGGSGGGGSGGGGSGGGGSGGGGSDIQMTQSPSSLSASVGDRVTITCRASQSVKEFLWWYQQKPGKAPKLLIYMASNLQSGVPSRFSGSGSGTDFTLTISSLQPEDFATYYCQQKFKLPRTFGQGTKVEIKR
notes: dAb-linker-dAb dimer; also called TAR1-5 dimer 4
B8: TAR1-5CH/dAb1 CK Fab (Fab, V domains shown, not shown: large carriers)
V domain 1: DIQMTQSPSSLSASVGDRVTITCRASQSIFMNLLWYQQKPGKAPKLLIYNASVLQSGVPSRFSGSGSGTDFTLTISSLQPEDFATYYCQQVVWRPFTFGQGTKVEIKR
V domain 2: B8 V domain 1 with F30Y, M31D, N32A, L34E, N50T, V53R, V92M, W93Q, F96V
B9: dAb3CH/TAR1-5CK Fab (Fab, V domains shown, not shown: large carriers)
V domain 1: DIQMTQSPSSLSASVGDRVTITCRASQSVKEFLWWYQQKPGKAPKLLIYMASNLQSGVPSRFSGSGSGTDFTLTISSLQPEDFATYYCQQKFKLPRTFGQGTKVEIKR
V domain 2: B8 V domain 1
notes: also called TAR1-5CK d3CH
B10: TAR1-5-19CH/dAb3CK Fab (Fab, V domains shown, not shown: large carriers)
V domain 1: B8 V domain 1 with F30D, M31S, N32Y, L34H, N50S, V53E
V domain 2: B9 V domain 1
notes: also called TAR1-5-19CH d3CK
B11: dAb1 CH/TAR1-5-19CK Fab (Fab, V domains shown, not shown: large carriers)
V domain 1: B8 V domain 1 with F30Y, M31D, N32A, L34E, N50T, V53R, V92M, W93Q, F96V
V domain 2: B8 V domain 1 with F30D, M31S, N32Y, L34H, N50S, V53E
notes: also called TAR1-5-19CK d1CH
B12: TAR1-5-19CH/dAb1 CK Fab (Fab, V domains shown, not shown: large carriers)
V domain 1: B8 V domain 1 with F30D, M31S, N32Y, L34H, N50S, V53E
V domain 2: B8 V domain 1 with F30Y, M31D, N32A, L34E, N50T, V53R, V92M, W93Q, F96V
notes: also called TAR1-5-19CH d1CK
B13: MSA16 (other)
VL: DIQMTQSPSSLSASVGDRVTITCRASQSIIKHLKWYQQKPGKAPKLLIYGASRLQSGVPSRFSGSGSGTDFTLTISSLQPEDFATYYCQQGARWPQTFGQGTKVEIK
notes: also called clone 16; clone 21
B14: MSA26 (other)
VL: B13 VL with I30Y, K31Y, G50K, R53T, G91V, A92R, R93K, W94V, Q96R
notes: also called clone 26; clone 25
B15: TAR1-5-19 5U homodimer (other)
chain: B1 chain with Y163D, D164S, A165Y, E167H, T183S, R186E, M225V, Q226W, V229F
notes: also called TAR1-5-19 homodimer with (Gly4Ser)5 linker
B16: TAR1-5-19 cys hinge dimer (other)
chain: DIQMTQSPSSLSASVGDRVTITCRASQSIDSYLHWYQQKPGKAPKLLIYSASELQSGVPSRFSGSGSGTDFTLTISSLQPEDFATYYCQQVVWRPFTFGQGTKVEIKREPKSGDKTHTCPPCP
modifications: hinge cysteines form the cystine bond(s) between the two chains
notes: Dimerises in the periplasm; FPLC purified dimer fraction tested; also called cysteine hinge linker format
B17: TAR1-5-19 3U homodimer (other)
chain: B2 chain with Y153D, D154S, A155Y, E157H, T173S, R176E, M215V, Q216W, V219F
notes: also called TAR1-5-19 homodimer with (Gly4Ser)3 linker
B18: TAR1-5-19 7U homodimer (other)
chain: B3 chain with Y173D, D174S, A175Y, E177H, T193S, R196E, M235V, Q236W, V239F
notes: also called TAR1-5-19 homodimer with (Gly4Ser)7 linker
B19: TAR1-5-19, MSA16 cys bonded heterodimer (bispecific antibody, V domains shown)
V domain 1: B8 V domain 1 with F30D, M31S, N32Y, L34H, N50S, V53E
V domain 2: DIQMTQSPSSLSASVGDRVTITCRASQSIIKHLKWYQQKPGKAPKLLIYGASRLQSGVPSRFSGSGSGTDFTLTISSLQPEDFATYYCQQGARWPQTFGQGTKVEIKR
modifications: C-terminal Cys disulphide bonded to the C-terminal Cys of the MSA16 chain ; Chain 1 pos 109 Cys and chain 2 pos 109 Cys are joined by an intermolecular disulphide bond, made by chemical coupling via dithiodipyridine activation.
notes: Made by chemical coupling via a disulphide bond; separated from monomers by cation exchange; also called disulphide bonded heterodimer of TAR1-5-19 dAb and MSA16 dAb; cys bonded TAR1-5-19, MSA16 dimer
B20: TAR1-27d16 (other)
chain: DIQMTQSPSSLSASVGDRVTITCRASQSIWTKLHWYQQKPGKAPKLLIYMASSLQSGVPSRFSGSGSGTDFTLTISSLQPEDFATYYCQQWFSNPSTFGQGTKVEIKRGGGGSGGGGSGGGGSDIQMTQSPSSLSASVGDRVTITCRASQSIGPNLEWYQQKPGKAPKLLIYAASSLQSGVPSRFSGSGSGTDFTLTISSLQPEDFATYYCQQQMGRPRTFGQGTKVEIKR
notes: dAb-linker-dAb dimer; also called TAR1-27 dimer d16
B21: TAR1-5-19CYS dimer (other)
VL: DIQMTQSPSSLSASVGDRVTITCRASQSIDSYLHWYQQKPGKAPKLLIYSASELQSGVPSRFSGSGSGTDFTLTISSLQPEDFATYYCQQVVWRPFTFGQGTKVEIKRC
modifications: C-terminal Cys forms the disulphide between the two chains
notes: Dimer via the engineered C-terminal cysteine, purified by protein L and cation exchange; also called TAR1-5-19CYS disulphide dimer

These binders were tested against T1, human TNFα (human, UniProt P01375 77-233) (assay: TNF receptor assay: inhibition of TNF binding to TNFR1-Fc (ELISA)).
T1 construct: Coated on plates, coupled to a CM5 chip, or added in solution (10 ng/ml) in the TNF receptor assay; the assay paragraphs often print only 'TNF'; also called TNF alpha; TAR1
T1 sequence (P01375 77-233 limits assumed): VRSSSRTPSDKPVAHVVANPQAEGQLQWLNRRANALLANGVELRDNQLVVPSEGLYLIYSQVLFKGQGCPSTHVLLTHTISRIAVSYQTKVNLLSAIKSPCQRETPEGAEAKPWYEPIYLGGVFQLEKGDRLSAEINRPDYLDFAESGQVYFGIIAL

**Q.** With B1 as the binder, how does the IC50 read?
**A.** ~8 nM

**Q.** B2 was tested. Which IC50 did it give?
**A.** ~15 nM

**Q.** With B3 as the binder, how does the IC50 read?
**A.** ~10 nM

Target: T1, human TNFα
Experiment: as above
Remark: another data set of the same source

**Q.** B4 was tested. Which IC50 did it give?
**A.** ~200 nM

**Q.** How did the IC50 turn out when B5 was run?
**A.** ~30 nM

**Q.** B6 was tested. Which IC50 did it give?
**A.** ~100 nM

**Q.** Which IC50 does the source give for B7 here?
**A.** ~3 nM

Target: T1, human TNFα
Experiment: as above
Remark: another data set of the same source

**Q.** For B8, which IC50 is on record?
**A.** ~90 nM

**Q.** How did the IC50 turn out when B9 was run?
**A.** ~100 nM

**Q.** With B10 as the binder, how does the IC50 read?
**A.** ~3 nM

**Q.** How did the IC50 turn out when B11 was run?
**A.** ~6 nM

**Q.** How did the IC50 turn out when B12 was run?
**A.** ~6 nM

The binders below were run against T2, mouse serum albumin (MSA) (mouse, UniProt P07724 25-608) (assay: inhibition biacore: dAb premixed with MSA, binding to MSA-coated CM5 chip, Klotz plot (estimated Kd)).
T2 construct: Used coated, on a CM5 chip, in solution and biotinylated (about 2 biotins per molecule); also called biotinylated MSA
T2 sequence (P07724 25-608 limits assumed): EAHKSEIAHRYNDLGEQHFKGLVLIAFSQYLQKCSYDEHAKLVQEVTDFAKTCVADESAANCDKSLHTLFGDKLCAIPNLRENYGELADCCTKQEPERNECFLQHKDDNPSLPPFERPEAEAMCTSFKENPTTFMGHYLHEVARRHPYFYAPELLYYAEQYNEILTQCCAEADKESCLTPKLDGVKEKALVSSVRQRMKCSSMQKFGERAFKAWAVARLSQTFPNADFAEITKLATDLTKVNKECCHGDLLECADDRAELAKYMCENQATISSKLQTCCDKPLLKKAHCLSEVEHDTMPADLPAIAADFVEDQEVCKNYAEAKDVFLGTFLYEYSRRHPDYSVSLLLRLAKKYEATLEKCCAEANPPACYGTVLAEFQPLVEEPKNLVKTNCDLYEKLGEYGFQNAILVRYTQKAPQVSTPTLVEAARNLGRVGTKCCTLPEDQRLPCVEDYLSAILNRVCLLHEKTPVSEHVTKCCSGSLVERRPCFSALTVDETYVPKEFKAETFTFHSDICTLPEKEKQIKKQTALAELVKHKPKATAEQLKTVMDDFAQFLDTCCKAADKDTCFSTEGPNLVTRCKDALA
Procedure: Briefly, the dAbs were tested to determine the concentration of dAb required to achieve 200 RUs of response on a biacore CM5 chip coated with a high density of MSA. Once the required concentrations of dAb had been determined, MSA antigen at a range of concentrations around the expected Kd was premixed with the dAb and incubated overnight. Binding to the MSA coated biacore chip of dAb in each of the premixes was then measured at a high flow-rate of 30 μl/minute.
The purified dAbs were then analysed by inhibition biacore to determine Kd. […] Once the required concentrations of dAb had been determined, MSA antigen at a range of concentrations around the expected Kd was premixed with the dAb and incubated overnight. Binding to the MSA coated biacore chip of dAb in each of the premixes was then measured at a high flow-rate of 30 μl/minute.

**Q.** With B13 as the binder, how does the Kd read?
**A.** 200 nM

**Q.** How did the Kd turn out when B14 was run?
**A.** 70 nM

Target: T1, human TNFα
Experiment: TNF receptor assay: inhibition of TNF binding to TNFR1-Fc (ELISA)
Remark: another data set of the same source

**Q.** How did the IC50 turn out when B15 was run?
**A.** ~2 nM

**Q.** B16 was tested. Which IC50 did it give?
**A.** ~2 nM

**Q.** Which IC50 does the source give for B17 here?
**A.** ~20 nM

**Q.** Which IC50 does the source give for B18 here?
**A.** ~10 nM

What follows are binders tested against T1, human TNFα (assay: cell-based or functional assay).

**Q.** B15 was tested. Which “CA (cell assay, ND50)” value did it give?
**A.** ~3 nM

**Q.** With B17 as the binder, how does the “CA (cell assay, ND50)” value read?
**A.** ~30 nM

**Q.** For B18, which “CA (cell assay, ND50)” value is on record?
**A.** ~15 nM

Target: T1, human TNFα
Experiment: TNF receptor assay: inhibition of TNF binding to TNFR1-Fc (ELISA)
Remark: another data set of the same source

**Q.** B19 was tested. Which IC50 did it give?
**A.** ~18 nM

**Q.** How did the IC50 turn out when B20 was run?
**A.** ~50 nM

**Q.** B21 was tested. Which IC50 did it give?
**A.** 0.3 to 0.8 nM
